# Publication PMC9603128, “Physiological, Biochemical, and Structural Bioinformatic Analysis of the Multiple Inositol Dehydrogenases from Corynebacterium glutamicum” (Microbiology Spectrum, 2022)
# B1: OxiD (Corynebacterium glutamicum ATCC 13032) (protein)
# chain: MTLRIALFGAGRIGHVHAANIAANPDLELVVIADPFIEGAQRLAEANGAEAVASPDEVFARDDIDGIVIGSPTSTHVDLITRAVERGIPALCEKPIDLDIEMVRACKEKIGDGASKVMLGFNRRFDPSFAAINARVANQEIGNLEQLVIISRDPAPAPKDYIAGSGGIFRDMTIHDLDMARFFVPNIVEVTATGANVFSQEIAEFNDYDQVIVTLRGSKGELINIVNSRHCSYGYDQRLEAFGSKGMLAADNIRPTTVRKHNAESTEQADPIFNFFLERYDAAYKAELATFAQGIRDGQGFSPNFEDGVIALELANACLESAQTGRTVTLNPANV
# notes: full length, C-terminal Strep-tag II, expressed in C. glutamicum MB001(DE3) from pPREx6-OxiD; StrepTactin and size exclusion
# B2: OxiE (Corynebacterium glutamicum ATCC 13032) (protein)
# chain: MKNITIGMVGVGRIGRMHVANMLAVAETLKERDLNIEIVLADAMPGFAEQVGADMGVKAAASVDKLIEDGVDALFIATSTAGHVDVLRKGIAAKLPMFCEKPIASDVPESLNIIREIDAAGATVQVGHQRRFDLGYQEAKRRLDAGDLGWLHSLKAVSSDAFPPPVSYCATSGGLFRDVSLHDFDIIRWLTGQDIVEVYAKGSNNGDPEIGAVGDIDTGAALLTLADGTLATAIATRYNGAGHDVRLDVMGSKDSTIVGLDEKSAFASAEEGIDFPTGESHPTFAERFADAYKNECIAFVELILGERENPCTPADAVAAAIVADAAQLSLVTGEPVKIPTVREILEGSAQPVEVRALVPSA
# notes: full length, C-terminal Strep-tag II, expressed in C. glutamicum MB001(DE3) from pPREx6-OxiE; StrepTactin and size exclusion
# B3: OxiB (Corynebacterium glutamicum ATCC 13032) (protein)
# chain: MTQQELRVAVIGAGMAGKAHAAGYRTASSIYSTTLPNIRLVSIADANVQLAEETAARFGFERFDTSWQAIVEADDIDVVSVVVANFLHREIVEALLASGKHVLCEKPLSDTIEDAEAMIEAAGRAATNGTIARIGLTYRRSPGVAHIRDLVQSGELGKVLHVTGHYWTDYGSNAQAPISWRYKGPNGSGALADVGSHLTYLAEFVAGSDFAAVRGGQLSTVITERPKPLGAIVGHEGGAVSDEYEAVENDDIASFSGSFIGGGTATLQVSRISQGHPNTLGFEVFCEKGSVLFDFRNSGEFKIFTPATSGDISQEAGYRTITIGPKHPYWRGGLAMDAPGVGIGQNEGFVFQARAFLEEIAGISEAESLPRCATLEEGLHNMQLIDAVSQSAAAGGETVAVPAAALIPANN
# notes: full length, C-terminal Strep-tag II, expressed in C. glutamicum MB001(DE3) from pPREx6-OxiB; StrepTactin and size exclusion
# B4: IolG (Corynebacterium glutamicum ATCC 13032) (protein)
# chain: MSKSLRVGVVGAGAMGADHIDRINNRTSGAHISAIIEPDAARAAAAAEDAPGAQAFTRIEDAIAADAVDAVLIAVPGQFHEPVLVPALEAGLPILCEKPLTPDSESSLRIVELEQKLDKPHIQVGFMRRFDPEYNNLRKLVESGEAGELLMLRGLHRNPSVGESYTQSMLITDSVVHEFDVIPWLAGSRVVSVEVKYPKTSSLAHSGLKEPILVIMELENGVLVDVEMNVNIQFGYQVATEAVFEKGLARIGQPSGMQRWRDGEFLINEHTDFTTRFATAYDRQIQSWVDAVHEGTLVAGPNAWDGYLVALSCEAGVKALDGGVIPVDAAPRPDFYA
# notes: full length, C-terminal Strep-tag II, expressed in C. glutamicum MB001(DE3) from pPREx6-IolG; StrepTactin and size exclusion
# Experiments:
# Test in all cases: purified protein
# Type in all cases: biochemical, Corynebacterium glutamicum
# Conditions in all cases: 5 mM NAD+, pH 7.5, 100 mM potassium phosphate, 1 mM MgSO4, 30 °C, substrate 0.5 to 50 mM
# purified protein [1] = substrate: O[C@H]1[C@H](O)[C@@H](O)[C@H](O)[C@@H](O)[C@H]1O
# purified protein [2] = substrate: O[C@H]1[C@H](O)[C@H](O)[C@@H](O)[C@H](O)[C@H]1O
# purified protein [3] = substrate: O[C@H]1[C@H](O)[C@@H](O)[C@H](O)[C@@H](O)[C@@H]1O
protein,measurement,setting,value
B1,Km,purified protein [1],19.6 ± 1.8 mM
same,Vmax,purified protein [1],59 µmol/min/mg
same,kcat,purified protein [1],35.6 ± 1.4 s⁻¹
same,kcat/Km,purified protein [1],1830 ± 107 M⁻¹ s⁻¹
same,Km,purified protein [2],50.6 ± 8.7 mM
same,Vmax,purified protein [2],25.5 µmol/min/mg
same,kcat,purified protein [2],15.4 ± 1.7 s⁻¹
same,kcat/Km,purified protein [2],308 ± 20 M⁻¹ s⁻¹
B2,Km,purified protein [3],12.4 ± 0.8 mM
same,Vmax,purified protein [3],13.4 µmol/min/mg
same,kcat,purified protein [3],8.5 ± 0.1 s⁻¹
same,kcat/Km,purified protein [3],689 ± 41.5 M⁻¹ s⁻¹
same,Km,purified protein [1],51.6 ± 3.6 mM
same,Vmax,purified protein [1],3.1 µmol/min/mg
same,kcat,purified protein [1],3.9 ± 0.3 s⁻¹
same,kcat/Km,purified protein [1],76.7 ± 5.2 M⁻¹ s⁻¹
same,Km,purified protein [2],54.1 ± 8.0 mM
same,Vmax,purified protein [2],0.005 µmol/min/mg
same,kcat,purified protein [2],0.003 s⁻¹
same,kcat/Km,purified protein [2],0.06 M⁻¹ s⁻¹
B3,Km,purified protein [3],28.8 ± 7.1 mM
same,Vmax,purified protein [3],0.05 µmol/min/mg
same,kcat,purified protein [3],0.03 s⁻¹
same,kcat/Km,purified protein [3],1.03 ± 0.11 M⁻¹ s⁻¹
same,Km,purified protein [1],62.1 ± 12.5 mM
same,Vmax,purified protein [1],5.8 µmol/min/mg
same,kcat,purified protein [1],4.2 ± 0.4 s⁻¹
same,kcat/Km,purified protein [1],69.1 ± 7.3 M⁻¹ s⁻¹
B4,Km,purified protein [1],60.9 ± 13.7 mM
same,Vmax,purified protein [1],23.1 µmol/min/mg
same,kcat,purified protein [1],14 ± 1.9 s⁻¹
same,kcat/Km,purified protein [1],235 ± 23.4 M⁻¹ s⁻¹
same,Km,purified protein [2],61.93 ± 5.61 mM
same,kcat,purified protein [2],8.66 ± 0.54 s⁻¹
same,kcat/Km,purified protein [2],140 ± 7.4 M⁻¹ s⁻¹
